Test: label from the status in PepcDB records

Sequence	protein production
MNTESVVEFLGNVPLLQKLPSSSLKKIAQVVVPKRYGKGDYVVREDQTWDGCYFILQGEAQVSGPDEEDNRSEFLLKQYDYFGVGLSGNVHSADIVAMSQLTCLVLPRDHCHLLETNSIWQSDTSLDKCSLVERILQLDPLELNIFRGITLPDAPIFGKVFGGQFVGQALAAASKTVDFLKVVHSLHSYFLLVGDIDIPIIYQVHRIRDGNNFATRRVDAVQKGNIIFILLASFQKEQQGFEHQESTMPSVPDPDTLLSLEELRESRITDPHLPRSYRNKVATRNFVPWPIEIRFCEPSNSTNQTKSPPRLNYWFRAKGRLSDDQALHRCVVAFASDLIFCGVGLNPHRRKGVKSAALSLDHAMWFHRPLRADEWLLYVIVSPTAHETRGFVTGQMFNRKGELVVSLTQEALLREARPPKPSGTSKL	failed
MSQSKEDKIRSILEAKNIKSNFQNKENLSEFNEKKASKRAEDLLDVYYNTLSTADMEFPYWYNREYRKSDGDIPVVRRAKALKAAFSHMTPNIIPGEKIVMQKTRHYRGSFPMPWVSESFFVAQGEQMREEAKKLASNTADELTKFGSGGGNVTESFGNVVSIAGKFGMRKEEVPVLVKMAKEWVGKSVEDLGFHYEKMMPDYDLKENLMSTLICMFDSGYTLPQGREVINYFYPLNYGLDGIIEMAKECKKAVAGNASGDGLIGMDRLYFYEAVIQVIEGLQTWILNYAKHAKYLESIETDLEAKKEYSDLVEILEHIAHKQPRTFREALQLTYTIHIASVNEDAISGMSIGRFGQILYPWYEQDIEKGLITKEEVIELLELYRIKITCIDCFASAGVNGGVLSGNTFNTLSIGGLKEDGSTGANELEELLLEASMRCRTPQPSLTMLYDEKLPEDFLMKAAECTKLGSGYPAWVNNSNGTTFMMKQFADEGMTVEEARAFALGGCLETSPGCWKQLTLNGKTYSIAGGAGQSAGSGVHFIANPKILELVLMNGKDYRMNIQVFEPHNKPLDTYEEVIEVFKDYYKQAINVLERANNIELDIWRKFDTSIINSLLKPDCLDKGQHIGNMGYRYNATLNVETCGTVTMVNSFAALKKLVYDDKAFTIEEMKDAILNNFGFKDALEVGNYSMADQVKVDKTGKYDAIYKACLDAPKYGNNDLYADNILKNYEVWLSKVCEEAQSLYAKKMYPCQISVSTHGPQGAATLATPDGRLSGTTYSDGSVSAYAGTDKNGVYALFESATIWDQAVVQNSQMNLKLHPTTIKGQQGTKKLLDLTRSYLRKGGFHIQYNVVDSETLKDAQKNPDNYRQLMVRVAGFTQYWCELGKPIQDEVIARTEYEGV	failed
MLNVIHALFFRELKTRFGKNRYLGYIWVVGEPMSVVLLVTIIGTVIREYHHQVMPEGISIFMFLISGIMPFFMFRSIVTQLMNGIGANLSLFAYKPVKPIHVFIARTLLEFCIYFVIFITVLFFAGWFFRLDVFPVHLLGVLFCIFLLICSAFALGICFAIVWHFVESLRTLLAYFSIVFYWSSGIIFPTWLTPRPLLDIFYYNPLLHIFELLRFNFFENYPLQDEYSYFYAIFWILLVLFIGLFIYYYNRQALTAAKKE	failed
MLTQTLDSPSGAKRLRVMSRHEREPVSQSKTDFSQQTRWMLAVRDNRDRLAFAALFDHFAPRLKGFVIRSGTPAHQAEEIVQDVMLTIWRKAAMFDPHRAQVSAWIYQIARNRQIDIARKENRPMPEELKEEPGTEPDASQILGLEQEAGQLKQALANLKPEQREIIEKAYLGELTHQEISAQTGLPLGTIKSRIRLGLERLRYELKDLKQ	failed
MNEIFGIDLGTTYSCISYVDEYGRPVVVPNAENERITPSVVFFDGDNVIVGDVAKENSKMYPEDVVSFVKRSMGDENFYFEHGGKNYHAEEISSFILRKLISDAENNLGQKINDVVITCPAYFGINEREATKLAGEIAGLNVKAIINEPTAAAVAYGVDYDKDKVVLVYDLGGGTFDVTMIDVKKDSIKVICTGGDHNLGGKDWDDALIAYMAEQYKEITGNDKDILEDPETCQELQLLAERVKKTLSQREKAPISINYEGERAKIEITRQKFNELTYDLLQRTVNLMDDMLKEAAKKNYTSFDEILLVGGSSRMPQVEEIIKNKYNIEPKVFDPDEAVSKGAALYGWKLSVNDELVRRISEETGKDIEDIKKSIDEKSIDENVVEAAAKRVADDTGYTLSAVKASNVKVVNVVSKSFGVVTYNNEEKEVVYNLIIKNSEVPYEFTERFGTREENQENVMIKIVEDELSDKIVDIAYGNEIGEAELVLPENLPKNSPVDITFKLNEEGRLEIKAIEAVEKREISTSIETSSVIKGKDLEEAKERNKNIEVS	failed
MSMQEMVTISIVTYNSRYIFNVLDQLKAELGTDSIYDIHIYDNHSETAYLEKLTTYEPFITIHRAEENQGFGHGHNQVLFNASTKYAIIFNPDVLVTKDVLDRLLNRIKIDKNIAVVSPKVLNEDGTTQYLVRQKLDVFDYMLRFIPFQFVKKIFDKRLSIYECRDLSDTETTDIKMGSGCFMLIDREKFVEIGGFDERFFMYFEDNDLCLRFGKAGYRILYTPFETVVHMYEKGAHKSRKLFKIFMQSMGKFFNKWGWRFFLEHHHHHH	not failed
KKFEQVIYRGITEGKSSNEIREELVHQAGMSSDKAAFIARDQTGTILGQMNSERQKRAGFQAFRWSDSGDERVRDSHRERNGKIYFYADNPLLPGEEYNCRCVAE	failed
MVSRIPTGNRGQGNGIEQSASSHATEATPWLGVNLPYGHWLPSSARSVVSRASSLLGGLANFRWGGRPASARPAPNIRSAAIAPAQQTLPPELWQQIATLAGARPRRAMREVSLELRNASRAVVTHLTISDPAMFRQLSLYPALKSVRFKGELTLEALKALPPELEHLEIGRCTGSAISAEGLAHLASMPLKSLNLNGIEIGVEGARTLAASKSLVSLSLIGCGIGDRAAQALVASRSIQCLDLSVNRIGRDGAQALAGAPLVSLNLHNNEIGNEGARVLATSRTLTSLDVSNNGVGNAGAEAFAGNTVLKQLSLAGGMISGDGAQALADNKSLTDLDLSNNRLGDAGAQALADSESFVSLKLGGNEIGADGAEALARNVVLQSLNLSYNPIGFWGVNALGRAKLRKLDLCACAIDSDGASALARNTSLASLYLGSNRIGDDGARALAKNSTLTLLNLSGNNIHAVGAQALASNDSLITLDLSRNGIGDDGTAALACHPRLTSLNLSRNQIGSTGAQQLAKSATLAELDLSENRIGPEGAEALARSTVLTTLNVSYNAIGEAGARALAESVSLTSLDARRNGIGEDGAKVLEANTRITGTPQNPNFLAEDVPRPDVRWRD	failed
MKHPDPAQKVEGTTATTPTKVAAFFDLDKTIIAMSSTYAYGREFMNSGLISPVEALQLSLAQATYMFAGHTSEQMDNTRDQLTAMIRGWEVQQVRSIAEETMHSVVTPTIYAEARELIEHHQELGHDVIIISASVKELVEPIARELGVHKTVTTVLEAHDGMYTGEVLFYCKGDAKAQSILDLAEANNYDLSLSFAYSDSFTDLPMLEAVGNPAAVNPDRALKKIALEQGWKILSFKNPEPLFQMPSTRDVGIGTGVVAGIAAVTAGSIWWMKRARRGSA	failed
MCYASMEMSAPIRFGTEGFRGVIAREFTFATLHRLAEAYGRHLLERGGGLVVVGHDTRFLADAFARALSGHLAGMGLKVVLLKGPVPTPLLSFAVRHLKAAGGAMLTASHNPPQYLGVKFKDATGGPIAQEEAKAIEALVPEEARALEGAYETLDLREAYFEALKAHLDLKALSGFSGVLYHDSMGGAGAGFLKGFLRHVGLEIPVRPIREEPHPLFHGVNPEPIPKNLGVTLAVLGPETPPSFAVATDGDADRVGVVLPGGVFFNPHQVLTTLALYRFRKGHRGRAVKNFAVTWLLDRLGERLGFGVTTTPVGFKWIKEEFLKGDCFIGGEESGGVGYPEHLPERDGILTSLLLLESVAATGKDLAEQFKEVEALTGLTHAYDRLDLPLKAPLDLTPFREPRPLAGLTPKGVDTLDGVKWLYEEAWVLFRASGTEPVVRIYVEAQSPELVRALLEEARKLVEG	not failed
MEIKQPAELSHVLTMTHRNLLKMWHNPDNVSDVVIQPIIFTLLFGYLFGGAIAGSVQAYLPMLVTGILIQSILNAASGSGQQLREDINAGVFDRFKTLPISPIVPLAGQLVGDVFRLLISGLMALVTAFMMGWRPIVSPLVLIGVLLLAVFVGWSLSWVFALVGLMVKNAALIGSLSMIIILVLTFLSNAFIPTKTLPHLLQTIVRLNPVSLTITAMRTILRTGHWGPDAFGVLLSGFLIIVIFMPLTVLAYRRFG	failed
MPSIIEAKHQGQKQSKNELKQARQSVIEQIQDLVPSSTVTHEYDFLFSGFALELPAHQIPSILGIDGVHAVYPNIEYEVETDFDEVVIEKDAYSPEMLDSAPFIGANDAWEAGYTGEGITVAILDTGVDYTHPDLVHAFGDYKGWDFIDNNDDPQETPPGDPRGIETTHGTHVAGTVAANGLIKGVAPDANLLAYRVLGPGGRGSTAGVIAGIERAVQDGADIMNLSLGNTLNDPDFATSIALDWAMAEGVVAVTSNGNSGPNNWTVGSPGTSRDAISVGATRLPYNKYKASVFTSDGIDYPSADIMGFPSDEELLELDGETYEYAFAGLGKPGDFEGVDVEGKIALIVRGEIPFVEKAENAKAAGAVGAIIYNNVAGVQPTVPGLAIPTIMLSNEDGLKMRNELENGQNTVTFSIEFDKLVGETVADFSSRGPVMHTWMIKPDVSAPGVAIVSTIPTHQPDDPYGYGSRQGTSMASPHVAGAAALLLEAHPNWGVDHVKAALMNTAENLVDENGNRYPHNTQGAGSIRIVDAIESETLVTPGSHSFGTFTKERGKQVERQHFTIHNLSNKRKTYQFDVQFAGNPDGIKVKTSKNLRVQPGKTQKINFNVQVDARKLDPGYYEGTIIVSDGSQTVEVPTILFVSEPDYPRVTTFDLDIDENGVLFGSAYLPNGAEEFGLWIYTRDTLEYVTSAAVVQNIGKGYHDVTWDTTELAPGRYYVFAYAERLGKTDFVLGDEIVVKLEHHHHHH	failed
MAGKRKKPKDTDLPPRVYRGKSKYEFHPARGGSISLCPLDAPISQVWSDYEKVNDRLPEKVTLNKLTEQFLHSMDFCELAIETQKDYRKYSLKLLPVFGEMSPDNIRPEHIRKYMDKRGITSRTQANREKTFLSRVYRWGYERGMVKGNPCRGVKQFTEKARDRYITDEEYDAVYQVAPDVVRVAMEIAYLCLARQADVLALRRDQLREPGIYIKQGKTAARQIKAWSERLRDAITLAESLPLKSGISSVYIIHQRTGLRYTRDGFNSKWRKAREVAKKTYPELDFNFTFHDLKAKGVSDLEGTLSEKQAISGHKNMGQTARYDRKIKIVPVVGNQKK	failed
MATLYDAPVDELIDELAADLETRLDEPDWANYAKTGAGRELPPEQSDFWATRAASLLRKVAIDGPIGVKRLSEAYGSTTSGSNRYVVAPSTTTAGSRNIVRTILQQLEAEGLVEQQHDHGRVVTGDGRSLLDETAGDVIESLDRPELERYA	failed
DKLYPCQCGKSFTHKSQRDRHMSMHLGLRPYGCGVCGKKFKMKHHLVGHMKIHTGIKPYECNICAKRFMWRDSFHRHVTSCTKSYEAAKAEQNTTEA	not failed
SLGAMFRAGTPMPPNLNSQGGGHYFIDRDGKAFRHILNFLRLGRLDLPRGYGETALLRAEADFYQIRPLLDALRELEASQGTPAPTAALLHADVDVSPRLVHFSARRGPHHYELSSVQVDTFRANLFCTDSECLGALRARFGVASGDRAEGSPHFHLEWAPRPVELPEVEYGRLGLQPLWTGGPGERREVVGTPSFLEEVLRVALEHGFRLDSVFPDPEDLLNSRSLRFVRH	not failed
MSDSKEITKVIVTMVVISAVAAALLALTYTPTQAQLKLLQAEQQKEAMKEILPQAADFEPVTGSEVDDDGNPVVLYYKGVDSSGNVVGYVVERNQVGAQGMIQLLAGISSDFSTITGFQVMKHSETPGLGALITTPEFQGQFVDLPVADTSLTKNGGQVDAISGATISSQAVVDALHSAVDYVSAQEG	failed
MIREAQRSELPALLELWLESTIWGHPFIKSSYWRDCIPLVRDAYLANAQNWVWEEDGKLLGFVSIMEGRFLAAMFVAPKAVRRGIGKALMQYVQQRHPHLMLEVYQKNQPAIDFYHAQGFHIVDCAWQDETQLPTWIMSWPVVQTL	failed

Source: a protein production outcome set (Wang et al. 2014)
